According to US20130243722A1 (NEUMEDICINES, published 2013):

Biological target: human IL-12 receptor on human CD14- PBMC (human, UniProt Q99665 24-862)
Assay: cell-based or functional assay

human IL-12 receptor on human CD14- PBMC, sequence (Q99665 24-862): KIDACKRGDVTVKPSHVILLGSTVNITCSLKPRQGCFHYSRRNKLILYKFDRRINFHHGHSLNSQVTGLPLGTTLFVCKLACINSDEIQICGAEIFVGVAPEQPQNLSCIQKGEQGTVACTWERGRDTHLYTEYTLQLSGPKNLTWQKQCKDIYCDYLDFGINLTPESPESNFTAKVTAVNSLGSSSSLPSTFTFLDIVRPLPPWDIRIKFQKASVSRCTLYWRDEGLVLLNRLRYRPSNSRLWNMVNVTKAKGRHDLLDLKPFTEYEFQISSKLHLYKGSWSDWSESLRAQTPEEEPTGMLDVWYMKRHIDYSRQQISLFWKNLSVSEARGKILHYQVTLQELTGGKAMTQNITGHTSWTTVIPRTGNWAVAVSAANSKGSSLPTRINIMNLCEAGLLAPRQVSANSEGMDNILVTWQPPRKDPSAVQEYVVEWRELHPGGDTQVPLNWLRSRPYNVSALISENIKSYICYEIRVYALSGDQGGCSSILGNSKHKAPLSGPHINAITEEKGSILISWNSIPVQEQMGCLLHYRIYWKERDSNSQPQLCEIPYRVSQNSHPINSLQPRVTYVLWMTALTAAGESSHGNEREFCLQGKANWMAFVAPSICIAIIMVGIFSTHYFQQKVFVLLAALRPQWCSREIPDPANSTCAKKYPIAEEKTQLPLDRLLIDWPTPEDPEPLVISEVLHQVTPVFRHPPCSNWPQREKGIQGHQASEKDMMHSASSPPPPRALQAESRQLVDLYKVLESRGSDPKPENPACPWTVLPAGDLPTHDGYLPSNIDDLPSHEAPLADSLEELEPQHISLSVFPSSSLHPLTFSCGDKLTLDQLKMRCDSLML

B1: recombinant human IL-12 (ligand)
chain 1: RNLPVATPDPGMFPCLHHSQNLLRAVSNMLQKARQTLEFYPCTSEEIDHEDITKDKTSTVEACLPLELTKNESCLNSRETSFITNGSCLASRKTSFMMALCLSSIYEDLKMYQVEFKTMNAKLLMDPKRQIFLDQNMLAVIDELMQALNFNSETVPQKSSLEEPDFYKTKIKLCILLHAFRIRAVTIDRVMSYLNAS
chain 2: IWELKKDVYVVELDWYPDAPGEMVVLTCDTPEEDGITWTLDQSSEVLGSGKTLTIQVKEFGDAGQYTCHKGGEVLSHSLLLLHKKEDGIWSTDILKDQKEPKNKTFLRCEAKNYSGRFTCWWLTTISTDLTFSVKSSRGSSDPQGVTCGAATLSAERVRGDNKEYEYSVECQEDSACPAAEESLPIEVMVDAVHKLKYENYTSSFFIRDIIKPDPPKNLQLKPLKNSRQVEVSWEYPDTWSTPHSYFSLTFCVQVQGKSKREKKDRVFTDKTSATVICRKNASISVRAQDRYYSSSWSEWASVPCS
For B1, the “EC50 for stimulating IFN-γ secretion from CD14- PBMC (ELISA, 16 hours)” value was 2.51 pM.
